# Laboratory results: article PMC3574120
# Molecular target: FrpB F3-3 variant (Neisseria meningitidis)
# Experiment: crystal structure; FrpB F3-3, space group P212121, three copies in the asymmetric unit about a non-crystallographic 3-fold axis, 2.40 Å; C8E5 detergent; crystals from the monomeric SEC peak
substance,measurement,value
FrpB F3-3 variant (natural protein),stoichiometry N,3
